Measured values published in patent publication US6884879.
Residue numbers refer to the chain shown, from its start.

Columns and labels:
VEGF [1] = biological target: T1, VEGF (human, UniProt P15692-4 27-191, limits assumed); assay: competition ELISA: biotinylated VEGF preincubated with IgG, capture on KDR-IgG, 10% human serum
T1 construct: also called human VEGF; biotinylated VEGF
Description: (§1) Diluted conditioned medium containing 3 ng/ml of KDR-IgG (Park et al., J. Biol. Chem. 269:25646–[…] (1994)) in blocking buffer were incubated on the plate for 1 h. […] The solutions from the tubes were then transferred to the ELISA plates and incubated for 1 h. […] Titration curves were fit with a four-parameter nonlinear regression curve-fitting program (KaleidaGraph, Synergy Software, Reading Pa.). […] Assays for full-length IgG were the same as for the F(ab)s except that the assay buffer contained 10% human serum.
[c]murIgG1 is muMAbVEGF A461 purified from ascites.

VEGF [2] = biological target: T1, VEGF; assay: competition ELISA (VEGF/KDR-IgG)
Description: as §1

VEGF [3] = biological target: T1, VEGF; assay: competition ELISA: biotinylated VEGF preincubated with F(ab), capture on KDR-IgG
Description: as §1

VEGF121 [4] = biological target: T2, VEGF121 (human, UniProt P15692-9 27-147); assay: BIAcore SPR, VEGF121 immobilized, Fab in solution
T2 construct: also called Purified VEGF121
T2 sequence (looked up): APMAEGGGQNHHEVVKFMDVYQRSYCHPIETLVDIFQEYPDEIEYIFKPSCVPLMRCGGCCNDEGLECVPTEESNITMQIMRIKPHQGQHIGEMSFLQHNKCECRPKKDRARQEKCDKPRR
Description: (§2) Binding of humanized A4.6.1 Fab variants was measured by flowing solutions of Fab in PBS/0.05% TWEEN 20™ over the chip at a flow rate of 20 μL/min. Following each binding measurement, residual Fab was stripped from the immobilized ligand by washing with 5 μL of 50 mM aqueous HCl at 3 μL/min. Binding profiles were analyzed by nonlinear regression using a simple monovalent binding model (BIAevaluation software v2.0; Pharmacia).

VEGF121 [5] = biological target: T2, VEGF121; assay: BIAcore SPR, VEGF121 immobilized
Description: as §2

rhVEGF165 = rhVEGF165 (human, UniProt P15692 27-191, limits assumed); assay: cell-based or functional assay

B1: chimeric IgG1 (antibody, V domains shown)
VH: EIQLVQSGPELKQPGETVRISCKASGYTFTNYGMNWVKQAPGKGLKWMGWINTYTGEPTYAADFKRRFTFSLETSASTAYLQISNLKNDDTATYFCAKYPHYYGSSHWYFDVWGAGTTVTVSS
VL: DIQMTQTTSSLSASLGDRVIISCSASQDISNYLNWYQQKPDGTVKVLIYFTSSLHSGVPSRFSGSGSGTDYSLTISNLEPEDIATYYCQQYSTVPWTFGGGTKLEIKR
notes: Murine A4.6.1 VL and VH fused to human kappa CL and human IgG1 heavy chain constant domains; also called chIgG1; chlgG1
How did the “IgG1/chlgG1 (ratio of EC50)” value (VEGF [1]) turn out when B1 was run?
The value was 1 ratio.

B2: muMAb VEGF A.4.6.1 (antibody, V domains shown)
VH: B1 VH
VL: B1 VL
notes: Original murine IgG1 purified from ascites; also called murIgG1; murlgG1
How did the “IgG1/chlgG1 (ratio of EC50)” value (VEGF [1]) turn out when B2 was run?
The value was 0.759 ratio.

B3: F(ab)-4 (Fab, V domains shown)
VH: EVQLVESGGGLVQPGGSLRLSCAASGYTFTNYGMNWVRQAPGKGLEWVGWINTYTGEPTYAADFKRRFTISLDTSKNTLYLQMNSLRAEDTAVYYCARYPHYYGSSHWYFDVWGQGTLVTVSS
VL: DIQMTQSPSSLSASVGDRVTITCSASQDISNYLNWYQQKPGKAPKLLIYFTSSLHSGVPSRFSGSGSGTDFTLTISSLQPEDFATYYCQQYSTVPWTFGQGTKVEIK
notes: F(ab)-1 with ArgH71Leu and AsnH73Thr; human CL and CH1
B3 was tested. Which “fold improvement of binding against F(ab)-1” value (VEGF [2]) did it give?
The value was 4 fold.

What about the “EC50 F(ab)-X / EC50 chimeric F(ab)” value (VEGF [3]) of the same binder?
The value was > 295 ratio.

B4: hu2.10 (Fab, V domains shown)
VH: B3 VH with V37I, K76A, N77S, L79V, R98K
VL: B3 VL with F71Y
notes: Phage-selected consensus clone, tested as soluble Fab; also called consensus clone hu2.10
How did the “KD(A4.6.1)/KD(mut) as headed; fold weaker than the A4.6.1 chimera” value (VEGF121 [4]) turn out when B4 was run?
Its value is 35 ratio.

B5: F(ab)-3 (Fab, V domains shown)
VH: B1 VH
VL: B3 VL
For B5, which “EC50 F(ab)-X / EC50 chimeric F(ab)” value (VEGF [3]) is on record?
Its value is 2.6 ratio.

B6: hu2.10V (Fab, V domains shown)
VH: B3 VH with V37I, K76A, N77S, L79V, R98K
VL: B3 VL with L46V, F71Y
notes: hu2.10 with Leu to Val at VL 46; soluble Fab
Which results are given for B6?
fold improvement of KD against hu2.10 (VEGF121 [5]): 6 fold; KD(A4.6.1)/KD(mut) as headed; fold weaker than the A4.6.1 chimera (VEGF121 [4]): 5.8 ratio

B7: Y0313-1 (Fab, V domains shown)
VH: EVQLVESGGGLVQPGGSLRLSCAASGYDFTHYGMNWVRQAPGKGLEWVGWINTYTGEPTYAADFKRRFTFSLDTSKSTAYLQMNSLRAEDTAVYYCAKYPYYYGTSHWYFDVWGQGTL
VL: DIQLTQSPSSLSASVGDRVTITCRANEQLSNYLNWYQQKPGKAPKVLIYFTSSLHSGVPSRFSGSGSGTDFTLTISSLQPEDFATYYCQQYSTVPWTFGQGTKVEIKR
How did the “potency in the HuVEC assay against the wild-type Fab (Y0192)” value (rhVEGF165) turn out when B7 was run?
Its value is 30 fold.
